Reference: patent US20190191748A1

target: moAb G12 conjugated to HRP (peroxidase); test: competitive ELISA, gliadin-coated plate, G12-HRP; reference OM719

| Substance | cross-reactivity (CR) = (IC50 of OM719 / IC50 of the variety) x 100 |
| --- | --- |
| avenins (prolamins) extracted from oat variety OE717 | 60% |
| avenins (prolamins) extracted from oat variety OH727 | 25% |
| avenins (prolamins) extracted from oat variety OA729 | 75% |

Now from value to substance:

| cross-reactivity (CR) = (IC50 of OM719 / IC50 of the variety) x 100 | Substance |
| --- | --- |
| 12% | avenins (prolamins) extracted from oat variety OC723 |
| 24% | avenins (prolamins) extracted from oat variety OL715 |
